Source: publication PMC4396693, “Structural Basis of Latrophilin-FLRT Interaction” (Structure(London, England:1993), 2015)

B1: murine LPHN3^Lec-Olf, wild type, biotinylated at a C-terminal Avi-Tag [modified: biotin on the C-terminal Avi-Tag (enzymatic); biotin on the C-terminal Avi-Tag (enzymatic)] [murine] / murine FLRT2 full ectodomain, wild … (parent)
chain 1: PIPMAVVRRELSCESYPIELRCPGTDVIMIESANYGRTDDKICDSDPAQMENIRCYLPDAYKIMSQRCNNRTQCAVVAGPDVFPDPCPGTYKYLEVQYECVPYKVEQKVFLCPGLLKGVYQSEHLFESDHQSGAWCKDPLQASDKIYYMPWTPYRTDTLTEYSSKDDFIAGRPTTTYKLPHRVDGTGFVVYDGALFFNKERTRNIVKFDLRTRIKSGEAIIANANYHDTSPYRWGGKSDIDLAVDENGLWVIYATEQNNGKIVISQLNPYTLRIEGTWDTAYDKRSASNAFMICGILYVVKSVYEDDDNEATGNKIDYIYNTDQSKDSLVDVPFPNSYQYIAAVDYNPRDNLLYVWNNYHVVKYSLDFGPLD
chain 2: ACPSVCRCDRNFVYCNERSLTSVPLGIPEGVTVLYLHNNQINNAGFPAELHNVQSVHTVYLYGNQLDEFPMNLPKNVRVLHLQENNIQTISRAALAQLLKLEELHLDDNSISTVGVEDGAFREAISLKLLFLSKNHLSSVPVGLPVDLQELRVDENRIAVISDMAFQNLTSLERLIVDGNLLTNKGIAEGTFSHLTKLKEFSIVRNSLSHPPPDLPGTHLIRLYLQDNQINHIPLTAFANLRKLERLDISNNQLRMLTQGVFDHLSNLKQLTARNNPWFCDCSIKWVTEWLKYIPSSLNVRGFMCQGPEQVRGMAVRELNMNLLSCPTTTPGLPVFTPAPSTVSPTTQSPTLSVPSPSRGSVPPAPTPSKLPTIPDWDGRERVTPPISERIQLSIHFVNDTSIQVSWLSLFTVMAYKLTWVKMGHSLVGGIVQERIVSGEKQHLSLVNLEPRSTYRICLVPLDAFNYRTVEDTICSEATTHASYLNNGSNTASSHEQTTSHSMGSP

Variants of: B1
Test: SPR
Conditions: with murine FLRT2 full ectodomain; for Kd: biotinylated LPHN3 Lec-Olf immobilized on streptavidin-coated Biacore chips, FLRT2 ectodomain injected as analyte, 1:1 binding model, parent: 18 nM; for response: maximum response at the highest FLRT2 ectodomain concentration plotted (about 2.3 µM), parent: 450, read off a plot

Row | Variant | Kd [nM] | response [RU]
1 | chain 1 PIPMAVVRRELSCESYPIELRCPGTDVIMIESANYGRTDDKICDSDPAQMENIRCYLPDAYKIMSQRCNNRTQCAVVAGPDVFPDPCPGTYKYLEVQYECVPYKVEQKVFLCPGLLKGVYQSEHLFESDHQSGAWCKDPLQASDKIYYMPWTNYTTDTLTEYSSKDDFIAGRPTTTYKLPHRVDGTGFVVYDGALFFNKERTRNIVKFDLRTRIKSGEAIIANANYHDTSPYRWGGKSDIDLAVDENGLWVIYATEQNNGKIVISQLNPYTLRIEGTWDTAYDKRSASNAFMICGILYVVKSVYEDDDNEATGNKIDYIYNTDQSKDSLVDVPFPNSYQYIAAVDYNPRDNLLYVWNNYHVVKYSLDFGPLD [chain 1 P153N R155T] | 980 | 460
2 | chain 1 PIPMAVVRRELSCESYPIELRCPGTDVIMIESANYGRTDDKICDSDPAQMENIRCYLPDAYKIMSQRCNNRTQCAVVAGPDVFPDPCPGTYKYLEVQYECVPYKVEQKVFLCPGLLKGVYQSEHLFESDHQSGAWCKDPLQASDKIYYMPWTPYRTDTLTEYSSKDDFIAGRPTTNYTLPHRVDGTGFVVYDGALFFNKERTRNIVKFDLRTRIKSGEAIIANANYHDTSPYRWGGKSDIDLAVDENGLWVIYATEQNNGKIVISQLNPYTLRIEGTWDTAYDKRSASNAFMICGILYVVKSVYEDDDNEATGNKIDYIYNTDQSKDSLVDVPFPNSYQYIAAVDYNPRDNLLYVWNNYHVVKYSLDFGPLD [chain 1 T176N K178T] | 460 | 400
